Data from US20140044713A1 (KONINKLIJKE NEDERLANDSE AKADEMIE VAN WETENSCHAPPEN, published 2014).

Legend:
LRP6 (endogenous) = target: T1, LRP6 (endogenous) (human, UniProt O75581 20-1613); experiment: TAP + mass spectrometry, HEK293 cells
T1 construct: whole, on cells

LRP5 (endogenous) = target: T2, LRP5 (endogenous) (human, UniProt O75197 32-1615); experiment: TAP + mass spectrometry, HEK293 cells
T2 construct: whole, on cells

[1] = target: T3, Lgr4 (endogenous, or expression construct whose tag is not stated) (human, UniProt Q9BXB1 25-951); experiment: TAP + mass spectrometry, HEK293 cells
T3 construct: whole, on cells; Endogenous protein of HEK293T / LS174T cells in TAP-MS; also called endogenous Lgr4

[2] = target: T4, Frz7 (endogenous, LS174T cells) (human, UniProt O75084 33-574); experiment: TAP (anti-FLAG, anti-HA) + mass spectrometry, bait stably expressed in LS174T cells, Exp 3-6
T4 construct: whole, on cells
Description: (§1) Left panel (Exps 1-7): HEK293T cells were transiently transfected, and LS174T cells were stably, transfected with the indicated tagged proteins. Right panel (Exps 8-9): HEK293T cells were incubated with the indicated tagged soluble proteins at 1 μg/ml. Sequential immunoprecipitation was performed by anti-FLAG and anti-HA antibodies and the associated complexes were analysed by mass spectrometry. Number of assigned spectra, number of unique peptides and the MASCOT Protein Score are given for selected identified proteins.

[3] = target: T3, Lgr4 (endogenous, or expression …); experiment: TAP (anti-FLAG, anti-HA) + mass spectrometry, 293T cells incubated with the soluble tagged bait, Exp 8
Description: as §1

T2 sequence (O75197 32-1615): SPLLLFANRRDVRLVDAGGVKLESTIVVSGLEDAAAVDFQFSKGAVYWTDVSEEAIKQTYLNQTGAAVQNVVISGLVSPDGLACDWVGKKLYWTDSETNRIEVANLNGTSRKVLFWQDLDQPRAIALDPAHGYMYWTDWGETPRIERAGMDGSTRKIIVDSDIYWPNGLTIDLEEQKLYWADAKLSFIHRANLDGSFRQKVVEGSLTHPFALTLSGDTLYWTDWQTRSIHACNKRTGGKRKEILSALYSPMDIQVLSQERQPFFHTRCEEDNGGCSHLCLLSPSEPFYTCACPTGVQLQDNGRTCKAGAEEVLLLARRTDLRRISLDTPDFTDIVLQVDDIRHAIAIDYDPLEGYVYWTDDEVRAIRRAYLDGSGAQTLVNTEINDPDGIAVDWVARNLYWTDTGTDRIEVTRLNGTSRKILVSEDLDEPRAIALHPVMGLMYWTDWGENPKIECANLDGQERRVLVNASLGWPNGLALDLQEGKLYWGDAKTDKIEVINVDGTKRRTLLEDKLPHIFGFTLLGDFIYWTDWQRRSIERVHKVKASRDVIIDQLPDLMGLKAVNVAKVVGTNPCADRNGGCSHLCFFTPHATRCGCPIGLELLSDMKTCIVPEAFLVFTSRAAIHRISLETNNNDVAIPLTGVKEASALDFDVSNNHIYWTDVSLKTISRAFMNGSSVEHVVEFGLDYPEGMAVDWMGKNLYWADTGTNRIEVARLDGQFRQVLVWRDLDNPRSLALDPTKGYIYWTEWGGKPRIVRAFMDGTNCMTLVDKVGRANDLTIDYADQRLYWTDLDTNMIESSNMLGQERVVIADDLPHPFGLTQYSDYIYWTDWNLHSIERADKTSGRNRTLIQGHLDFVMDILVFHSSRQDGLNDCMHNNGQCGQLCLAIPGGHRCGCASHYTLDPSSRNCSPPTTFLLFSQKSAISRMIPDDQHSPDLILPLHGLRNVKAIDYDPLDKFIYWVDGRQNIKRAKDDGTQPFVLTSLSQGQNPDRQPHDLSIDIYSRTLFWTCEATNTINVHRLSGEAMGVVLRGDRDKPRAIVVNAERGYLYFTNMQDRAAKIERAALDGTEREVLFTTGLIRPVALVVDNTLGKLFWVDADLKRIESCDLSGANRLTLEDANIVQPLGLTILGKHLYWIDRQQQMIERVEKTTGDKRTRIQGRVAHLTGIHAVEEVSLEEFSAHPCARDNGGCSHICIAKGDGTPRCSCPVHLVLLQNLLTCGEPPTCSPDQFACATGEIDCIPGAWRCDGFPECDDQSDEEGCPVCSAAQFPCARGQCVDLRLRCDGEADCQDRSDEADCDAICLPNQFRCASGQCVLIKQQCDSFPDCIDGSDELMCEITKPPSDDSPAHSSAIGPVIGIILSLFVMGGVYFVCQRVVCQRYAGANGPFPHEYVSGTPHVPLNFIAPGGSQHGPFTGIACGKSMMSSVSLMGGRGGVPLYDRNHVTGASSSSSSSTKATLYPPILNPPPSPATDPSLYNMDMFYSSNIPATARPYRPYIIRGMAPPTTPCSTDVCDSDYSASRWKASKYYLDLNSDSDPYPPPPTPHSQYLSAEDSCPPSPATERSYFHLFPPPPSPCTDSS
T1 sequence (O75581 20-1613): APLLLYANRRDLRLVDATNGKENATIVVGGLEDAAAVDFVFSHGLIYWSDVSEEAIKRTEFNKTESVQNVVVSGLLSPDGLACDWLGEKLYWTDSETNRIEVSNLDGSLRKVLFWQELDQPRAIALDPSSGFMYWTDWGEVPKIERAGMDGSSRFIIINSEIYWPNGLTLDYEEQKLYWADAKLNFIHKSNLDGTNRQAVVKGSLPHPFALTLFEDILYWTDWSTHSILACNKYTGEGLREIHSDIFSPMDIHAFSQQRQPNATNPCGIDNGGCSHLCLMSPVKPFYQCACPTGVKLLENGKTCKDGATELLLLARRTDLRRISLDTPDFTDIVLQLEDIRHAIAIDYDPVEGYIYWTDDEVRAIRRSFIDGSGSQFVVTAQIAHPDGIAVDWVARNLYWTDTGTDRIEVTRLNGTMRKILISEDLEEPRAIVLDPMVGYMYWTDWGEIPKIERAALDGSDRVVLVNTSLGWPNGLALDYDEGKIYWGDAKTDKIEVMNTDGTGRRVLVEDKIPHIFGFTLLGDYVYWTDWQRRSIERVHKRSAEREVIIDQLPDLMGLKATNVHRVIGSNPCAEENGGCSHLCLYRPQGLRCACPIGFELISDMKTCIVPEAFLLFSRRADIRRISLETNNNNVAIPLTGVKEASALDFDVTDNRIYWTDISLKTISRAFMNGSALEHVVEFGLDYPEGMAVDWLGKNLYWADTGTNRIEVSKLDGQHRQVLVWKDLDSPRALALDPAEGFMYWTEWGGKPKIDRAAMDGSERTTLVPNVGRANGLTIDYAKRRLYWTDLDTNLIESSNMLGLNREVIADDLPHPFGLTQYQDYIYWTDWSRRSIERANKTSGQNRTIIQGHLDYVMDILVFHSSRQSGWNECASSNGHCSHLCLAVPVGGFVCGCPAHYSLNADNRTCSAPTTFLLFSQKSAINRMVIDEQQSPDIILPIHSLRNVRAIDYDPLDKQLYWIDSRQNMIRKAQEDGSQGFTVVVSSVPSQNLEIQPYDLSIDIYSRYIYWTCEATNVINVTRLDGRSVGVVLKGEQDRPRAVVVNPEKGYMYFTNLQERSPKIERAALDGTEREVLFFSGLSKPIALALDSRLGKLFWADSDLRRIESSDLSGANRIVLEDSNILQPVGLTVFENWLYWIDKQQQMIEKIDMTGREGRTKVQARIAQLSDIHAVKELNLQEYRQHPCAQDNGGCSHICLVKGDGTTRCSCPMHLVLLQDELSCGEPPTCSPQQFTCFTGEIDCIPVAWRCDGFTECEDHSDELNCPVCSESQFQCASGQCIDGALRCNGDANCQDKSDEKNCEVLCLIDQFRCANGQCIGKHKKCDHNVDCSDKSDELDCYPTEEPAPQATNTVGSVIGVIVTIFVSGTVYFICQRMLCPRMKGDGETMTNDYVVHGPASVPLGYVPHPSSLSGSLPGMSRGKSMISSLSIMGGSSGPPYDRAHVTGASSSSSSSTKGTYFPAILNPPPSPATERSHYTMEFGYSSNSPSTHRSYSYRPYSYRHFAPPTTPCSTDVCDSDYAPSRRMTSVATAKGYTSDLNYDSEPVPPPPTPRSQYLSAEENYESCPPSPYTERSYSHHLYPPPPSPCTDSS

Binder	binding result (LRP6 (endogenous))	binding result (LRP5 (endogenous))	binding result [1]	binding result [2]	binding result [3]
EMI1 (other, not shown: small tags and cut ends, TAP-MS bait) MSRRPCSCALRPPRCSCSASPSAVTAAGRPRPSDSCKEESSTLSVKMKCDFNCNHVHSGLKLVKPDDIGRLVSYTPAYLEGSCKDCIKDYERLSCIGSPIVSPRIVQLETESKRLHNKENQHVQQTLNSTNEIEALETSRLYEDSGYSSFSLQSGLSEHEEGSLLEENFGDSLQSCLLQIQSPDQYPNKNLLPVLHFEKVVCSTLKKNAKRNPKVDREMLKEIIARGNFRLQNIIGRKMGLECVDILSELFRRGLRHVLATILAQLSDMDLINVSKVSTTWKKILEDDKGAFQLYSKAIQRVTENNNKFSPHASTREYVMFRTPLASVQKSAAQTSLKKDAQTKLSNQGDQKGSTYSRHNEFSEVAKTLKKNESLKACIRCNSPAKYDCYLQRATCKREGCGFDYCTKCLCNYHTTKDCSDGKLLKASCKIGPLPGTKKSKKNLRRL	no binding	no binding	no binding	–	–
FBXW5 (other, not shown: small tags and cut ends, TAP-MS bait) MDEGGTPLLPDSLVYQIFLSLGPADVLAAGLVCRQWQAVSRDEFLWREQFYRYYQVARDVPRHPAAMSWYEEFQRLYDTVPCVEVQTLREHTDQVLHLSFSHSGYQFASCSKDCTVKIWSNDLTISLLHSADMRPYNWSYTQFSQFNKDDSLLLASGVFLGPHNSSSGEIAVISLDSFALLSRVRNKPYDVFGCWLTETSLISGNLHRIGDITSCSVLWLNNAFQDVESENVNVVKRLFKIQNLNASTVRTVMVADCSRFDSPDLLLEAGDPATSPCRIFDLGSDNEEVVAGPAPAHAKEGLRHFLDRVLEGRAQPQLSERMLETKVAELLAQGHTKPPERSATGAKSKYLIFTTGCLTYSPHQIGIKQILPHQMTTAGPVLGEGRGSDAFFDALDHVIDIHGHIIGMGLSPDNRYLYVNSRAWPNGAVVADPMQPPPIAEEIDLLVFDLKTMREVRRALRAHRAYTPNDECFFIFLDVSRDFVASGAEDRHGYIWDRHYNICLARLRHEDVVNSVVFSPQEQELLLTASDDATIKAWRSPRTMRVLQAPRPRPRTFFSWLASQRR	no binding	no binding	no binding	–	–
UCHL1 (enzyme, not shown: small tags and cut ends, TAP-MS bait) MQLKPMEINPEMLNKVLSRLGVAGQWRFVDVLGLEEESLGSVPAPACALLLLFPLTAQHENFRKKQIEELKGQEVSPKVYFMKQTIGNSCGTIGLIHAVANNQDKLGFEDGSVLKQFLSETEKMSPEDRAKCFEKNEAIQAAHDAVAQEGQCRVDDKVNFHFILFNNVDGHLYELDGRMPFPVNHGASSEDTLLKDAAKVCREFTEREQGEVRFSAVALC	no binding	no binding	no binding	–	–
eEF2K (enzyme, not shown: small tags and cut ends, TAP-MS bait) ADEDLIFRLEGVDGGQSPRAGHDGDSDGDSDDEEGYFICPITDDPSSNQNVNSKVNKYYSNLTKSERYSSSGSPANSFHFKEAWKHAIQKAKHMPDPWAEFHLEDIATERATRHRYNAVTGEWLDDEVLIKMASQPFGRGAMRECFRTKKLSNFLHAQQWKGASNYVAKRYIEPVDRDVYFEDVRLQMEAKLWGEEYNRHKPPKQVDIMQMCIIELKDRPGKPLFHLEHYIEGKYIKYNSNSGFVRDDNIRLTPQAFSHFTFERSGHQLIVVDIQGVGDLYTDPQIHTETGTDFGDGNLGVRGMALFFYSHACNRICESMGLAPFDLSPRERDAVNQNTKLLQSAKTILRGTEEKCGSPQVRTLSGSRPPLLRPLSENSGDENMSDVTFDSLPSSPSSATPHSQKLDHLHWPVFSDLDNMASRDHDHLDNHRESENSGDSGYPSEKRGELDDPEPREHGHSYSNRKYESDEDSLGSSGRVCVEKWNLLNSSRLHLPRASAVALEVQRLNALDLEKKIGKSILGKVHLAMVRYHEGGRFCEKGEEWDQESAVFHLEHAANLGELEAIVGLGLMYSQLPHHILADVSLKETEENKTKGFDYLLKAAEAGDRQSMILVARAFDSGQNLSPDRCQDWLEALHWYNTALEMTDCDEGGEYDGMQDEPRYMMLAREAEMLFTGGYGLEKDPQRSGDLYTQAAEAAMEAMKGRLANQYYQKAEEAWAQMEE	no binding	no binding	no binding	–	–
FBXL2 (other, not shown: small tags and cut ends, TAP-MS bait) MVFSNNDEGLINKKLPKELLLRIFSFLDIVTLCRCAQISKAWNILALDGSNWQRIDLFNFQTDVEGRVVENISKRCGGFLRKLSLRGCIGVGDSSLKTFAQNCRNIEHLNLNGCTKITDSTCYSLSRFCSKLKHLDLTSCVSITNSSLKGISEGCRNLEYLNLSWCDQITKDGIEALVRGCRGLKALLLRGCTQLEDEALKHIQNYCHELVSLNLQSCSRITDEGVVQICRGCHRLQALCLSGCSNLTDASLTALGLNCPRLQILEAARCSHLTDAGFTLLARNCHELEKMDLEECILITDSTLIQLSIHCPKLQALSLSHCELITDDGILHLSNSTCGHERLRVLELDNCLLITDVALEHLENCRGLERLELYDCQQVTRAGIKRMRAQLPHVKVHAYFAPVTPPTAVAGSGQRLCRCCVIL	no binding	no binding	no binding	–	–

The next lines start with the values.

binding result (LRP6 (endogenous))	binding result (LRP5 (endogenous))	binding result [1]	binding result [2]	binding result [3]	Binder
no binding	no binding	no binding	–	–	FBXW4 (other, not shown: small tags and cut ends, TAP-MS bait) MAAAAGEEEEEEEAARESAARPAAGPALWRLPEELLLLICSYLDMRALGRLAQVCRWLRRFTSCDLLWRRIARASLNSGFTRLGTDLMTSVPVKERVKVSQNWRLGRCREGILLKWRCSQMPWMQLEDDSLYISQANFILAYQFRPDGASLNRRPLGVFAGHDEDVCHFVLANSHIVSAGGDGKIGIHKIHSTFTVKYSAHEQEVNCVDCKGGIIVSGSRDRTAKVWPLASGRLGQCLHTIQTEDRVWSIAISPLLSSFVTGTACCGHFSPLRIWDLNSGQLMTHLGSDFPPGAGVLDVMYESPFTLLSCGYDTYVRYWDLRTSVRKCVMEWEEPHDSTLYCLQTDGNHLLATGSSYYGVVRLWDRRQRACLHAFPLTSTPLSSPVYCLRLTTKHLYAALSYNLHVLDFQNP
no binding	no binding	no binding	–	–	KCTD21 (other, not shown: small tags and cut ends, TAP-MS bait) MSDPITLNVGGKLYTTSLATLTSFPDSMLGAMFSGKMPTKRDSQGNCFIDRDGKVFRYILNFLRTSHLDLPEDFQEMGLLRREADFYQVQPLIEALQEKEVELSKAEKNAMLNITLNQRVQTVHFTVREAPQIYSLSSSSMEVFNANIFSTSCLFLKLLGSKLFYCSNGNLSSITSHLQDPNHLTLDWVANVEGLPEEEYTKQNLKRLWVVPANKQINSFQVFVEEVLKIALSDGFCIDSSHPHALDFMNNKIIRLIRYR
–	–	–	no binding	–	FLAG/HA-tagged Lgr5 (receptor, human, UniProt O75473 22-907, looked up, whole, on cells; also called Lgr5 bait; FH-tagged human Lgr5; not shown: FLAG/HA double tag) GSSPRSGVLLRGCPTHCHCEPDGRMLLRVDCSDLGLSELPSNLSVFTSYLDLSMNNISQLLPNPLPSLRFLEELRLAGNALTYIPKGAFTGLYSLKVLMLQNNQLRHVPTEALQNLRSLQSLRLDANHISYVPPSCFSGLHSLRHLWLDDNALTEIPVQAFRSLSALQAMTLALNKIHHIPDYAFGNLSSLVVLHLHNNRIHSLGKKCFDGLHSLETLDLNYNNLDEFPTAIRTLSNLKELGFHSNNIRSIPEKAFVGNPSLITIHFYDNPIQFVGRSAFQHLPELRTLTLNGASQITEFPDLTGTANLESLTLTGAQISSLPQTVCNQLPNLQVLDLSYNLLEDLPSFSVCQKLQKIDLRHNEIYEIKVDTFQQLLSLRSLNLAWNKIAIIHPNAFSTLPSLIKLDLSSNLLSSFPITGLHGLTHLKLTGNHALQSLISSENFPELKVIEMPYAYQCCAFGVCENAYKISNQWNKGDNSSMDDLHKKDAGMFQAQDERDLEDFLLDFEEDLKALHSVQCSPSPGPFKPCEHLLDGWLIRIGVWTIAVLALTCNALVTSTVFRSPLYISPIKLLIGVIAAVNMLTGVSSAVLAGVDAFTFGSFARHGAWWENGVGCHVIGFLSIFASESSVFLLTLAALERGFSVKYSAKFETKAPFSSLKVIILLCALLALTMAAVPLLGGSKYGASPLCLPLPFGEPSTMGYMVALILLNSLCFLMMTIAYTKLYCNLDKGDLENIWDCSMVKHIALLLFTNCILNCPVAFLSFSSLINLTFISPEVIKFILLVVVPLPACLNPLLYILFNPHFKEDLVSLRKQTYVWTRSKHPSLMSINSDDVEKQSCDSTQALVTFTSSSITYDLPPSSVPSPAYPVTESCHLSSVAFVPCL
–	–	–	–	no binding (tested: 1 µg/ml)	double (Flag-HA)-tagged version of human Dkk1 (Dkk1-FH) (ligand, UniProt O94907 32-266, looked up, not shown: Flag-HA double tag) TLNSVLNSNAIKNLPPPLGGAAGHPGSAVSAAPGILYPGGNKYQTIDNYQPYPCAEDEECGTDEYCASPTRGGDAGVQICLACRKRRKRCMRHAMCCPGNYCKNGICVSSDQNHFRGEIEETITESFGNDHSTLDGYSRRTTLSSKMYHTKGQEGSVCLRSSDCASGLCCARHFWSKICKPVLKEGQVCTKHRRKGSHGLEIFQRCYCGEGLSCRIQKDHHQASNSSRLHTCQRH
